Target: Ubiquitin (wild-type), 15N isotopically labelled (UniProt P0CG47 1-76)
Test: NMR titration

Does CMQIFVKTLTGKTITLEVC (disulphide bridge between the two terminal cysteines) [stapled Cys-Ubq3-Cys peptide (stapled xenonucleus)] bind?
Result: binds
